Data reported in PMC5549943.
“And” between values parts separate entries of the source, which are not always exact repeats. Equal entries are not always repeated.

Biological target: Hepatitis B Virus core protein Cp149 dimer (Hepatitis B Virus)
Assay: resistive-pulse sensing

Q: “Hepatitis B Virus core protein Cp149 dimer (domain or fragment)” was tested. Which stoichiometry N did it give?
A: The stoichiometry N was 90 dimers and 120 dimers.
